Experimental data published in US20100291078A1 (published 2010).

Columns and labels:
[1] = target: T1, human CD38-Fc (human, UniProt P28907 43-300, limits assumed); assay: SPR (Biacore 3000), CD38-Fc immobilized, 1:1 fit, apparent
T1 construct: not shown: Fc part

[2] = target: T2, human CD38 on cells (human, UniProt P28907 1-300); assay: FACS titration on CD38 expressing RPMI8226 cells
T2 construct: whole, on cells; The species is stated for the CHO-K1 transfectants; also called CHO-K1 cells recombinantly expressing human CD38; CD38 expressing RPMI8226 cell

B1: MOR03080 IgG1 (antibody, V domains shown)
VH: QVQLVESGGGLVQPGGSLRLSCAASGFTFSSYGMHWVRQAPGKGLEWVSNIYSDGSNTFYADSVKGRFTISRDNSKNTLYLQMNSLRAEDTAVYYCARNMYRWPFHYFFDYWGQGTLVTVSS
VL: DIELTQPPSVSVAPGQTARISCSGDNIGNKYVSWYQQKPGQAPVVVIYGDNNRPSGIPERFSGSNSGNTATLTISGTQAEDEADYYCSSYDSSYFVFGGGTKLTVLG
- Kd [1]: 3 nM
- EC50 [2]: 0.4 nM
